The values that follow come from patent US20210330740A1 (RUN X, published 2021).

The assay deals with T1, BRD2 (Bromodomain-containing protein 2) (UniProt P25440 1-801, limits assumed).
T1 construct: also called Brd2 protein
Put plainly: co-immunoprecipitation and immunoblotting, time course. The method, then: Particularly, the antibody targeting RUNX3 (5G4) (Cat #ab40278) was obtained from Abcam (Cambridge, UK), and the antibody was diluted 1:3000. BRD2 (M01; 1:1000; Cat #H00006046-M01, Abnova, Taipei City, Taiwan) was used for immunoblotting and immunoprecipitation. Transient transfection was performed in all cell lines using lipofectamine plus reagent and lipofectamine (Invitrogen). Cell lysates were incubated with an appropriate monoclonal or polyclonal antibody (2 μg of antibody/500 μg of lysate sample) at 4° C. for 3 hours, followed by incubation with protein G-Sepharose beads (Amersham Pharmacia Biotech, Piscataway, N.J., USA). For the detection of endogenous proteins at 4° C. for 1 hour, the lysate was incubated with an appropriate monoclonal or polyclonal antibody (1:1000˜1:3000) at 4° C. for 6 to 12 hours, and then protein G-Sepharose beads (Amersham Pharmacia Biotech) were […] at 4° C. for 3 hours. The immune precipitate was digested on SDS-polyacrylamide gel electrophoresis (SDS-PAGE) gel and transferred to a PVDF membrane (Millipore, Billerica, Mass., USA). The membrane was blocked, immunoblotted with an appropriate antibody, treated with ECL solution (Amersham Pharmacia Biotech), and visualized in Amersham™ Imager 600 (GE Healthcare, Chicago, Ill., USA).
(In general: A western blot detects proteins with antibodies after separation by electrophoresis.)

T1 sequence (P25440 whole entry): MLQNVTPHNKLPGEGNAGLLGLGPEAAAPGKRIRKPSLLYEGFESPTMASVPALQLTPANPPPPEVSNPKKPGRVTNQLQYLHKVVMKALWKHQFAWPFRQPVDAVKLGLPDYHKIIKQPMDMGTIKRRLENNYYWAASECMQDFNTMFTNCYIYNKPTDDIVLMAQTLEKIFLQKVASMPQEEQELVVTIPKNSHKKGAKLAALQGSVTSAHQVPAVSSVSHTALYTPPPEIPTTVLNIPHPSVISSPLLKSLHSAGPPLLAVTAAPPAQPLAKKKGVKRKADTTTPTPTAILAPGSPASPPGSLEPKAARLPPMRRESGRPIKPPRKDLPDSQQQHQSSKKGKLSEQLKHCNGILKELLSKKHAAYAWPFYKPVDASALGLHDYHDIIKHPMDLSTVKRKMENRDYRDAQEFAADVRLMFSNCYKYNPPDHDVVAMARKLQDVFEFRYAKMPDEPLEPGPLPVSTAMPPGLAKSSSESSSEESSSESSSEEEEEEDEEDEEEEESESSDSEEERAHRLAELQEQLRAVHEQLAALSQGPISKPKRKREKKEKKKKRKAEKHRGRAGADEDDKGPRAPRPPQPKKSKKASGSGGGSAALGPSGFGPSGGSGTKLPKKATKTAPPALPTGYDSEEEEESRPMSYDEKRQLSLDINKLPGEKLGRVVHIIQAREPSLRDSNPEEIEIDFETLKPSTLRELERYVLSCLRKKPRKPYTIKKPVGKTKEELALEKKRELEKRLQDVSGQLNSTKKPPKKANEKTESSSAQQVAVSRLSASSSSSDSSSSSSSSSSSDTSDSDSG

B1: modified protein in which the 356th serine of Runx3 is substituted with alanine (other, UniProt Q13761 1-415, looked up)
chain: MRIPVDPSTSRRFTPPSPAFPCGGGGGKMGENSGALSAQAAVGPGGRARPEVRSMVDVLADHAGELVRTDSPNFLCSVLPSHWRCNKTLPVAFKVVALGDVPDGTVVTVMAGNDENYSAELRNASAVMKNQVARFNDLRFVGRSGRGKSFTLTITVFTNPTQVATYHRAIKVTVDGPREPRRHRQKLEDQTKPFPDRFGDLERLRMRVTPSTPSPRGSLSTTSHFSSQPQTPIQGTSELNPFSDPRQFDRSFPTLPTLTESRFPDPRMHYPGAMSAAFPYSATPSGTSISSLSVAGMPATSRFHHTYLPPPYPGAPQNQSGPFQANPSPYHLYYGTSSGSYQFSMVAGSSSGGDRAPTRMLASCTSSAASVAAGNLMNPSLGGQSDGVEADGSHSNSPTALSTPGRMDEAVWRPY
notes: also called Runx3 S356A; RUNX3 S356A
Turning to B1, the “complex maintenance activity, fold against wild-type Runx3” value was not below 10 times.
